Drawing on US20020137076, this text covers Ki for 1 substance.

The target of the data set is RNase A (UniProt P61823). In words: inhibition.
Chain of UniProt P61823 (P61823 27-150): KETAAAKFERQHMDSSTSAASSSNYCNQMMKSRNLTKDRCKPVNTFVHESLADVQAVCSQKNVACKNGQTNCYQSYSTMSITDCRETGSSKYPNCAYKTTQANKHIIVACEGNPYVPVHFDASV

Turning to polyG, the Ki was 10 nM (2 ug/ml polyG, polyC substrate, 100 mM MES, 100 mM NaCl pH 6.0, non-competitive); 87.3 nM (20 ug/ml polyG, polyC substrate, 100 mM MES, 100 mM NaCl pH 6.0, non-competitive); 40 nM (Dixon, 40 mM Tris-HCl pH 7.9, 6 mM MgCl2, 10 mM NaCl, 2 mM spermidine); 10 nM (Dixon, 40 mM Tris-HCl pH 7.9, 6 mM MgCl2, 10 mM NaCl, no spermidine).
